Key:
[1] = Stability of PDGF in the depot formulations (rpHPLC, SEC); assay type: physicochemical; details: day 0
Method: Depot gel PDGF formulations were stored for different periods of time at 5, 25 and 40° C., respectively. At predetermined time points, the depot gel PDGF-BB formulation (0.3 ml) was treated with a cooled organic solvent (a 50/50 mixture of methylene chloride/acetone, at 5° C., 3×3.0 ml). The resulting residual PDGF-BB was dissolved in a PBS buffer (2 ml, pH 7.4) and the purity of the PDGF was analyzed by both reverse phase HPLC (rpHPLC) and size exclusion chromatography (SEC) HPLC. FIGS. 18-20 illustrate the stability of PDGF (% monomer by SEC) in the various depot formulations, including those of the present invention, as a function of time at 5° C. (FIG. 18), 25° C. (FIG. 19) and 40° C. (FIG. 20), respectively. Table 12 summarizes the chemical stability of PDGF tested by rpHPLC in the various depot formulations, including those of the present invention, as a function of time at 5° C., 25° C. and 40° C., respectively. […] Sucrose has a significant stabilizing effect on the various depot formulations of the present invention.

[2] = Preliminary stability of PDGF preformulations in the gel vehicle (SEC, rpHPLC); assay type: physicochemical; details: mixed into gel vehicle PLGA RG502/BB/BA 40/45/15, stored at 5° C. for 1 day
Method: All lyophilized protein formulations as listed in Tables 8 and 9, were mixed into a gel vehicle with the composition of PLGA RG502/Benzyl Benzoate (BB)/benzyl alcohol (BA) of 40/45/15 with the loading of the protein formulation about 10 wt %. After being stored at 5° C. for 1 day, the mixtures were extracted with an organic solvent mixture of methylene chloride and acetone (ratio of 50/50) as described in the example 15 above. The purity of the PDGF-BB was analyzed by both reverse phase HPLC (rpHPLC) and size exclusion chromatography (SEC). In general, no distinguishable degradation of the PDGF-BB was found in the PDGF-BB formulation incorporated with the excipients as described in the example 18 and mixed with the gel vehicle of the present invention.

In the case of “Bulk PDGF: PDGF-BB bulk solution, i.e., aqueous solution of PDGF in acetate buffer”, the “RP-HPLC Other Peak(s)” value [1] is reported as 0 % Peak Area, the “RP-HPLC Peak at (RRT = 0.93)” value [1] is reported as 11.1 % Peak Area and the “RP-HPLC Peak at (RRT = 1.00)” value [1] is reported as 87.7 % Peak Area. The “RP-HPLC Peak at (RRT = 1.09)” value [1] was 1.2 % Peak Area, the “% PDGF dimer by SEC” value [2] was 0.73% and the “% PDGF monomer by SEC” value [2] was 99.27%. For the same substance, the “% other peaks by rp-HPLC” value [2] was 0.0%, the “% peak at RRT = 0.93 by rp-HPLC” value [2] was 11.1% and the “% peak at RRT = 1.00 by rp-HPLC” value [2] was 87.7%. For the same substance, the “% peak at RRT = 1.10 by rp-HPLC” value [2] was 1.2%.

— patent publication US7829109B2, “Catheter injectable depot compositions and uses thereof” (Durect Corporation, priority 2001, dated 2010)
